In the test the test system is P. acnes biofilms. Description: Screen of enzymes that degrade P. acnes biofilms (crystal violet). Format: cell-based. Conditions: enzymes 0.01 mg/mL, 30° C., 30 mins. On the procedure: FIG. 4. A screen to select enzymes that can degrade P. acnes biofilms. P. acnes was grown in polystyrene microtiter plates to stimulate biofilm production. Enzymes were added at 0.01 mg/mL to the wells and incubated at 30° C. for 30 mins. The degraded biofilm was washed away with phosphate buffered saline (PBS), and the residual biofilm in each well was quantified by staining with crystal violet and recording absorbance at 590 nm.
Without being bound by any scientific theory, we hypothesized that biofilms might present a significant barrier to phage killing of sessile P. acnes cells. […] In order to determine whether biofilm degradation would improve phage killing, a number of enzymes was screened to find a BDE specific for P. acnes. The screen comprised three classes of enzymes that might degrade types of materials that may be found in biofilms: DNA, polysaccharides, and proteins.

“Also recorded” adds a separate entry of the source.

B1: dispersin: a glycoside hydrolase from Aggregatibacter actinomycetemcomitans, biofilm degrading enzyme (protein)
chain: MNCCVKGNSIYPQKTSTKQTGLMLDIARHFYSPEVIKSFIDTISLSGGNFLHLHFSDHENYAIESHLLNQRAENAVQGKDGIYINPYTGKPFLSYRQLDDIKAYAKAKGIELIPELDSPNHMTAIFKLVQKDRGVKYLQGLKSRQVDDEIDITNADSITFMQSLMSEVIDIFGDTSQHFHIGGDEFGYSVESNHEFITYANKLSYFLEKKGLKTRMWNDGLIKNTFEQINPNIEITYWSYDGDTQDKNEAAERRDMRVSLPELLAKGFTVLNYNSYYLYIVPKASPTFSQDAAFAAKDVIKNWDLGVWDGRNTKNRVQNTHEIAGAALSIWGEDAKALKDETIQKNTKSLLEAVIHKTNGDE
modifications: Aggregatibacter actinomycetemcomitans
notes: a glycoside hydrolase from Aggregatibacter actinomycetemcomitans, biofilm degrading enzyme
Turning to B1, the “P. acnes biofilm degradation (residual biofilm, absorbance at 590 nm)” value is “best glycoside depolymerase amongst those tested; also recorded: best rates of biofilm degradation”.

B2: proteinase K: protease screened as P. acnes biofilm degrading enzyme (protein, UniProt P06873 106-384, looked up)
Proteinase K: AAQTNAPWGLARISSTSPGTSTYYYDESAGQGSCVYVIDTGIEASHPEFEGRAQMVKTYYYSSRDGNGHGTHCAGTVGSRTYGVAKKTQLFGVKVLDDNGSGQYSTIIAGMDFVASDKNNRNCPKGVVASLSLGGGYSSSVNSAAARLQSSGVMVAVAAGNNNADARNYSPASEPSVCTVGASDRYDRRSSFSNYGSVLDIFGPGTSILSTWIGGSTRSISGTSMATPHVAGLAAYLMTLGKTTAASACRYIADTANKGDLSNIPFGTVNLLAYNNYQA
In the case of B2, the “P. acnes biofilm degradation (residual biofilm, absorbance at 590 nm)” value is “good activity”.
